Among the data in publication PMC3485338 are Kd, binding and binding signal (fold lower affinity than PabrB) values, retold here.

pKd: −log10 of the molar value.

The target in series [1] is T1, Spo0A-DBD-6xHis (Clostridium difficile 630Δerm) (UniProt I6ZTX1).
T1 sequence: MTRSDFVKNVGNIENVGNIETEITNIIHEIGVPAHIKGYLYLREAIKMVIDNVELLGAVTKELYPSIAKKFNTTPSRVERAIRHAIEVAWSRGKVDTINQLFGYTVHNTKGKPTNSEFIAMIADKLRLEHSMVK
Kind of series: EMSA. The conditions noted are these: EMSA: 10 mM Tris-HCl pH 7.6, 1 mM EDTA, 50 mM NaCl, 1 mM DTT, 5% glycerol, 200 ug/mL BSA, 200 cpm/uL 32P-DNA, 20 min at 30 C; 8% native PAGE in 1x TAE. In general terms: A gel shift assay detects complexes by their altered migration in electrophoresis.

Series [2] deals with Spo0A-DBD-6xHis (Clostridium difficile 630Δerm). Briefly: EMSA. The conditions noted are these: EMSA: 10 mM Tris-HCl pH 7.6, 1 mM EDTA, 50 mM NaCl, 1 mM DTT, 5% glycerol, 200 ug/mL BSA, 200 cpm/uL 32P-DNA, 20 min at 30 C; 8% native PAGE in 1x TAE.

The term pKd denotes −log10 of the Kd, conventionally taken in molar units.

On to “AGGATTTTTAGTAGGATAATAGCTTTATTAAATATTTATAAAATGCTGTTATTTCGGTAGTTTCCAAGACATTACTGACTATAAGAACTAATTCTTACAATCAATAGTAAACAAAATGATTGACGATTATTGGAAACCTTGTTATGCTATGAAGGTAAGGATTTTGTCGAATAATGACGAAGAAAAATATAATTTAAACAAATAAGTATCTCTTGGGAG (double strand) [PabrB]”, for which the pKd in series [1] was more than 7.30.

On to “CAATTCTGTATTCCATTTATGTATCCCTCCATAACGGTTGCTTCAATAGATCATAATTCGCCAATGACACAAAAAATCCTTTTTATTTTTCGATCTTGGCAGATTTTAATTTTAATTCAAGATATACGCGGGAATCCTTTGAATATTTGTATTTTGGATTTGTCCTGCCGTACTCCTTTGATGTATAAGAGACATCATAATGCTGTTCAAATGATCTAATGAGCTGTTCAATTTCTTCTTGTTTTCCAGCTAGCCTTACCTGTGCCACTTCGTATCCTCCGCTTTCA (double strand) [PcitG]”, for which the binding entry in series [1] was “no binding”.

As to PabrB, the pKd in series [2] was more than 7.30.

On to PabrB C4A, for which, in series [2], the binding signal (fold lower affinity than PabrB) came to 10.

Regarding PabrB G2A, the binding signal (fold lower affinity than PabrB) in series [2] was 10.

As to PabrB G5A, the binding signal (fold lower affinity than PabrB) in series [2] was 10.
